Holding throughout (type): cell-based
Experiment [1] deals with all 10 Fz genes. Nature of the experiment: STF luciferase assay after co-transfection with all 10 Fz genes, no Gpr124/Reck. As to conditions: in the absence of Gpr124/Reck. As for the experimental part: Cells were plated into 96-well plates and transfected after 24 h in triplicate with Lipofectamine 2000 (Invitrogen, Carlsbad, Calif.). The amount of plasmid DNA transfected per well was optimized for each expression vector: Renilla luciferase (0.5 ng), Wnt (20 ng), Fz (5 ng), LRP (2.5 ng), Gpr124 (10 ng), Reck (10 ng) unless otherwise indicated. The total amount of DNA was adjusted to 100 ng per well with the empty pCS2 vector. Cells were harvested in passive lysis buffer (E1960, Promega, Wisconsin) and the activities of the Firefly and Renilla luciferases were measured sequentially using the Dual-Luciferase Reporter Assay system (E1960, Promega, Madison, Wis.) 48 h post-transfection.

In experiment [2] the target is T1, Gpr124/Reck/Fz/LRP (UniProt O70421+O95980).
T1 construct: host or cells: HEK293-STF cells
T1 sequence (O70421 69-642, one chain of several): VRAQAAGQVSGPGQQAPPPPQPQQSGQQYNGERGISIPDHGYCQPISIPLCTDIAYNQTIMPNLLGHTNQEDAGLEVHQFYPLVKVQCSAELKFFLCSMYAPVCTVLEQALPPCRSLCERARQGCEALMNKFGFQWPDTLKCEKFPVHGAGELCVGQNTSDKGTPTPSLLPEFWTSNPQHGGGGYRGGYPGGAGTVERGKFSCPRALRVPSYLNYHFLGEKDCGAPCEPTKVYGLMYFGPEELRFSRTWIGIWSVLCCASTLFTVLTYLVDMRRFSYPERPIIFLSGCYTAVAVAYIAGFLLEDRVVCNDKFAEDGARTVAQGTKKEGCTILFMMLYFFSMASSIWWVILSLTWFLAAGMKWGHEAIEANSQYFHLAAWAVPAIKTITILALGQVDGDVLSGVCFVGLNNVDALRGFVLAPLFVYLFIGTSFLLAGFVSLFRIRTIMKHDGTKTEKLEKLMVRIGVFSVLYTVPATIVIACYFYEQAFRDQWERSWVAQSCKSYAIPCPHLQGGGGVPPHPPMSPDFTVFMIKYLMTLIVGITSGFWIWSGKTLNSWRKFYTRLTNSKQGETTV
T1 sequence (Q96PE1 34-1338 partner, one chain of several): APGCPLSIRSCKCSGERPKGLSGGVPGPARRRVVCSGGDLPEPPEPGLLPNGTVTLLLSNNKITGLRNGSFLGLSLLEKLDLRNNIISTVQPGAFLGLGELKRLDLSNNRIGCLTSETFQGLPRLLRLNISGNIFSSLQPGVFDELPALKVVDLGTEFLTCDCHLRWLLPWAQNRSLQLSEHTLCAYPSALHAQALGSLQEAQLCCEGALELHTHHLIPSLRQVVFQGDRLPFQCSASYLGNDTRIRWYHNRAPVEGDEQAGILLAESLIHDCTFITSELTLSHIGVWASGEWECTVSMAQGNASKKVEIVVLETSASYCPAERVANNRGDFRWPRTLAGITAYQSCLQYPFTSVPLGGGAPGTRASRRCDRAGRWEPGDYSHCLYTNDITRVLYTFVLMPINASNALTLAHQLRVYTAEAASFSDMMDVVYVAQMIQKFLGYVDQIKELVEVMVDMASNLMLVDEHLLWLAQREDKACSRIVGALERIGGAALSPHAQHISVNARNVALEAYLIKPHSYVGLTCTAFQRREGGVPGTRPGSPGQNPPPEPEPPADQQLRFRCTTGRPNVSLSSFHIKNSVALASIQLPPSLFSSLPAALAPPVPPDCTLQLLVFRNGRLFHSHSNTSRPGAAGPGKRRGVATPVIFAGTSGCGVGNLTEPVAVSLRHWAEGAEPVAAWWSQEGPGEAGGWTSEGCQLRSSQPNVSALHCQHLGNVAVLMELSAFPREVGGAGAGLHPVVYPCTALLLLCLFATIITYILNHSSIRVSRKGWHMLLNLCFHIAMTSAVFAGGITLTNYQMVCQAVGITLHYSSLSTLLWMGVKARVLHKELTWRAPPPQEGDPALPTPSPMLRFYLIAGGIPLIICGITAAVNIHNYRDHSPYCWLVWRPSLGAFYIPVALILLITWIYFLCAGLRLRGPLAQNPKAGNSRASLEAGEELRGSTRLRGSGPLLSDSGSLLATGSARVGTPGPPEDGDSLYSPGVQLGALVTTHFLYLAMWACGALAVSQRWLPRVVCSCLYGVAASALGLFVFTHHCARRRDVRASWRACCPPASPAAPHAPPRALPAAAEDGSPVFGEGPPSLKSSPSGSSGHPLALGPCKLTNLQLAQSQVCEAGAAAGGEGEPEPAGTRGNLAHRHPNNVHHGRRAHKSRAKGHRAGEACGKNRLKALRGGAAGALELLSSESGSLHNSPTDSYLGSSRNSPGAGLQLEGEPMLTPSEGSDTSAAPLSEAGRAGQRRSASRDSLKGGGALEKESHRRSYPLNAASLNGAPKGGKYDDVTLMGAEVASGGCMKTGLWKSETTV
T1 sequence (O75581 20-1613 partner, one chain of several): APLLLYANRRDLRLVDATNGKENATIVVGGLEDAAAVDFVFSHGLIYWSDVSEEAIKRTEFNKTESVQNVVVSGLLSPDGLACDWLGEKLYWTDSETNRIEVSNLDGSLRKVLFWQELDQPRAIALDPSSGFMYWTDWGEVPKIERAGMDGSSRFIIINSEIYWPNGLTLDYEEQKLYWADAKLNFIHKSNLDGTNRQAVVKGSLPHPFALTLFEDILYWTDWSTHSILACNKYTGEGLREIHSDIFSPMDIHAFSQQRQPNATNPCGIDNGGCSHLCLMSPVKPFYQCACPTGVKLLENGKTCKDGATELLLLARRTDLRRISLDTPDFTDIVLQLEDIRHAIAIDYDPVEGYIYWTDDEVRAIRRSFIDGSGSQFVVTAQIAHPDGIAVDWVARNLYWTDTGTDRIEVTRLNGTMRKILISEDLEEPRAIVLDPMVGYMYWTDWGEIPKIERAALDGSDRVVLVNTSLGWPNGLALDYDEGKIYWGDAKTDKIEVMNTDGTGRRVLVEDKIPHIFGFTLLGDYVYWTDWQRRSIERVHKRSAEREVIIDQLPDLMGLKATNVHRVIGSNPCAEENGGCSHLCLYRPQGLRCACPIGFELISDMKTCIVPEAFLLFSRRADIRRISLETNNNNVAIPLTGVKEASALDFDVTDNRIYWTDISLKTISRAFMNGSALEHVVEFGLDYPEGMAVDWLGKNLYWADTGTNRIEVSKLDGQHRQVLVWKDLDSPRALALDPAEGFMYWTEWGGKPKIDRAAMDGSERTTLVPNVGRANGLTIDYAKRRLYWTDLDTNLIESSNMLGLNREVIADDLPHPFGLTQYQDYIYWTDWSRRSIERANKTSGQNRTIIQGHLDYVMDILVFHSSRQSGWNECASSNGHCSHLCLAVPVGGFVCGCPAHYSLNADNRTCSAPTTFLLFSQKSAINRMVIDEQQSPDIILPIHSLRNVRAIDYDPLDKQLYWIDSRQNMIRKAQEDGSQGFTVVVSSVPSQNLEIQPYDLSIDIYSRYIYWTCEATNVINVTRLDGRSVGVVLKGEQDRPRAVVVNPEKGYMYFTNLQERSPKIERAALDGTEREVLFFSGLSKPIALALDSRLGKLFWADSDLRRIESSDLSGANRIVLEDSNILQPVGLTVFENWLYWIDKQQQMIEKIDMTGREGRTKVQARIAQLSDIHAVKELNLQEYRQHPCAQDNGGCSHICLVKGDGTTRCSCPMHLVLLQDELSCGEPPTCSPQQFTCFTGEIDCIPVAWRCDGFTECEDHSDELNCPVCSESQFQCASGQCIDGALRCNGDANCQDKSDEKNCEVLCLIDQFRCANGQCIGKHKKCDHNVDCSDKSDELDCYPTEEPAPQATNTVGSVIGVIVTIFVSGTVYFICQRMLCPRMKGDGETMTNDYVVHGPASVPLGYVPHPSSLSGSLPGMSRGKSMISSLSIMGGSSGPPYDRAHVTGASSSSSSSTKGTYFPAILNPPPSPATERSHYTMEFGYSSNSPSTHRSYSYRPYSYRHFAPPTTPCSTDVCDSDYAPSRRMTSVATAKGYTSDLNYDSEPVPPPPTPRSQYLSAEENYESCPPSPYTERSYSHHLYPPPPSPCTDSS
The experiment is described as follows: STF dual luciferase assay, Gpr124/Reck-dependent signaling in HEK293-STF cells. As to conditions: Gpr124, RECK and Fz1 transfection. As for the experimental part:
Cells were plated into 96-well plates and transfected after 24 h in triplicate with Lipofectamine 2000 (Life Technologies, Carlsbad, Calif.). The amount of plasmid DNA transfected per well was optimized for each expression vector: Renilla luciferase (0.5 ng) (was kindly provided by Jeremy Nathans (John Hopkins)), Wnt ligands (20 ng), Fz receptors (5 ng), Lrp (2.5 ng), Gpr124 (10 ng), Reck (5 ng) and Dkk-1 (10 ng) unless otherwise indicated. The total amount of DNA was adjusted to 100 ng per well with the empty pCS2 vector. Dual luciferase assays were performed using the STF cell line or by co-transfecting 20 ng of M50 Super 8× TOPFlash plasmid (Addgene plasmid #12456). Cells were harvested in passive lysis buffer (E1960, Promega, Wis.) and the activities of the Firefly and Renilla luciferases were measured sequentially using the Dual-Luciferase Reporter Assay system (E1960, Promega, Madison, Wis.) 48 h post-transfection. […] Luciferase activity was measured 24 h after co-culture.
Cells were plated into 96-well plates and transfected after 24 h in triplicate with Lipofectamine 2000 (Invitrogen, Carlsbad, Calif.). […] Cells were harvested in passive lysis buffer (E1960, Promega, Wisconsin) and the activities of the Firefly and Renilla luciferases were measured sequentially using the Dual-Luciferase Reporter Assay system (E1960, Promega, Madison, Wis.) 48 h post-transfection.

For experiment [3], the target named is T2, HA-Reck (Homo sapiens, UniProt O95980).
T2 construct: expressed in transfected cells; host or cells: GPR124-/-;RECK-/- HEK293 (STF) cells, pCS2 / CMV promoter
T2 sequence (O95980 23-942): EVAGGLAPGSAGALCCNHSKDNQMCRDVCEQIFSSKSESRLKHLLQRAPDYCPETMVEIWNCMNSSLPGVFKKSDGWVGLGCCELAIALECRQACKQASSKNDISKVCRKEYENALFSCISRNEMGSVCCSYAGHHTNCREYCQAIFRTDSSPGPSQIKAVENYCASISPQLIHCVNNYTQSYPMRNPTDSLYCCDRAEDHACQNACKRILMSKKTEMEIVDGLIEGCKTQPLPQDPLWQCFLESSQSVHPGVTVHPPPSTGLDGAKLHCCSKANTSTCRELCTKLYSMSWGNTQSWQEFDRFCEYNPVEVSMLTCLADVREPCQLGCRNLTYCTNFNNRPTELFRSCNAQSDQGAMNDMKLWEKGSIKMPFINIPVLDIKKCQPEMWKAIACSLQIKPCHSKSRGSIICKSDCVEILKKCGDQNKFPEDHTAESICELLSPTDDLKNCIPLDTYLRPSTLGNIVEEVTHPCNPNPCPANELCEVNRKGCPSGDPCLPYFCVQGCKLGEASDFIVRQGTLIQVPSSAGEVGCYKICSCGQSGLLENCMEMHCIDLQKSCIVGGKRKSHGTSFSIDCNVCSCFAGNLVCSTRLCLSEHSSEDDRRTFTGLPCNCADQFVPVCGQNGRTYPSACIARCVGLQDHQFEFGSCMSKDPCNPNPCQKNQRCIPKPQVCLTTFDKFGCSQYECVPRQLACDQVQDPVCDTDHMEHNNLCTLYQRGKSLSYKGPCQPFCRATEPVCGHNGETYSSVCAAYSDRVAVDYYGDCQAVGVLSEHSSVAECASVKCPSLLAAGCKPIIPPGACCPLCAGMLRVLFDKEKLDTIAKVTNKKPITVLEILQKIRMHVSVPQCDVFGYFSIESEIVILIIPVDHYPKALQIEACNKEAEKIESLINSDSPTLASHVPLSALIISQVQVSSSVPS
Nature of the experiment: Proximity ligation assay (PLA), anti-V5/anti-HA, V5-tagged Wnt ligand and HA-Reck in GPR124−/−;RECK−/− cells. As to conditions: GPR124−/−;RECK−/− cells co-expressing HA-Reck. As for the experimental part:
1.7. Immunofluorescence and Proximity Ligation Assay Cells were grown in glass-coated chambers (IBIDI, Martinsried, Germany) and transfected after 24 h with Lipofectamine 2000 (Life Technologies, Carlsbad, Calif.). Cells were fixed with 4% paraformaldehyde for 10 min at room temperature (RT) 48 h post transfection. For immunofluorescence staining (IF), cells were blocked in 1% BSA-PBS for 30 min before being exposed to primary antibodies for 1 h at RT. After three PBS washes, cells were incubated with secondary antibodies for 1 h at RT. For anti-V5 staining of Wnt ligands, cells were additionally washes for 10 min in PBS 0.1% Tween 20 before incubation with the secondary antibody solution. For the proximity ligation assay (PLA) (Sigma-Aldrich, St. Louis, Mo.), cells were blocked for 30 min at 37° C. with the Blocking solution provided by the manufacturer before being incubated with the primary antibodies for 1 h at RT. Cells were washed three times and incubated with the PLA probes anti-rabbit PLUS and anti-mouse MINUS for 1 h at 37° C. After two PBS washes, cells were incubated with the Duolink Ligation solution for 30 min at 37° C. After two PBS washes, cells were incubated with the Duolink Amplification solution for 100 min at 37° C. The following antibodies were used: mouse monoclonal anti-V5 (R96025, Life Technologies, Carlsbad, Calif.) at 1:500 for IF and PLA, purified polyclonal rabbit anti-HA (H6908, St. Louis, Mo.) at 1:400 for IF and PLA and anti-mouse Alexa488-conjugated secondary antibody (Thermo Fisher Scientific, Waltham, Mass.) at 1:5000. Cells were stained for 2 min with Hoechst diluted to 10 μg ml-1 in PBS.
Cells and zebrafish embryos were imaged with an LSM710 confocal microscope and images were processed in ImageJ. Images of eye fusion phenotypes were taken on Leica M165 FC. Representations of brain vasculature were generated using Imaris software (BitPlane, Zurich, Switzerland). The percentage of PLA positive (PLA+) areas and DAPI positive (DAPI+) areas were calculated using ImageJ on images containing about 50 to 100 cells. The PLA+ area was measured after manually applying a fixed threshold. The DAPI+ area was measured after applying the “default” thresholding method in Image J.

B1: Wnt7a^1-278: the N-terminal domain of Wnt7a, single domain truncated variant (protein)
chain: LGASIICNKIPGLAPRQRAICQSRPDAIIVIGEGSQMGLDECQFQFRNGRWNCSALGERTVFGKELKVGSREAAFTYAIIAAGVAHAITAACTQGNLSDCGCDKEKQGQYHRDEGWKWGGCSADIRYGIGFAKVFVDAREIKQNARTLMNLHNNEAGRKILEENMKLECKCHGVSGSCTTKTCWTTLPQFRELGYVLKDKYNEAVHVEPVRASRNKRPTFLKIKKPLSYRKPMDTDLVYIEKSPNYC
modifications: left off: small tags and cut ends
notes: the N-terminal domain of Wnt7a, single domain truncated variant
As for B1, the “signaling through any Fz” value in experiment [1] was “failed to signal through any Fz”. The “signaling capacity via Gpr124/Reck/Fz1” value in experiment [2] is approximately 40%. Moreover, the entries for the “Reck binding (anti-V5/anti-HA PLA signal)” value in experiment [3] and in experiment [3] (listed as Wnt7a^NTD) were “still binds Reck” and “bound to Reck as potently as full-length Wnt7a”, respectively.

The values above are taken from US11840557B2, “Wnt7 variants capable of activating g-protein coupled receptor (Gpr)124/Reck/frizzled/lipoprotein receptor-related protein (LRP)-mediated Wnt signaling” (UNIVERSITÉ LIBRE DE BRUXELLES, priority 2018, dated 2023).
